Ends that are not written are not given here.
Legend:
collagen type IV = assay: Initial (single point) binding screen of Tp0751 peptide library to immobilized collagen type IV; conditions: immobilized human collagen type IV; absorbance 600 nm, three wells, two independent experiments; Student's two-tailed t-test against non-binding peptides
Description: (§1) Fig 3 Tp0751 lipocalin derived peptides directly bind host proteins. (A) Thirteen overlapping Tp0751 synthetic 24-mer peptides were evaluated for binding to immobilized fibrinogen, fibronectin, collagen type I, and collagen type IV. Average absorbance readings (600 nm) from three wells are presented with bars indicating standard error and the results are representative of two independent experiments. […] Average absorbance readings (600 nm) from three wells are presented with bars indicating standard error and the results are representative of two independent experiments. […] The strand colored in cyan reflects the overlap of p10 and p11. Color coded sequences of peptides p4, p6, p10, p10scr1, and p10scr2 are shown. Arginine residues in the p10 peptides are indicated by underlining.
(§2) Plasminogen-depleted human fibrinogen (Calbiochem) was purchased from VWR International. Laminin isolated from Engelbreth-Holm-Swarm murine sarcoma basement membrane and fibronectin isolated from human plasma were purchased from Sigma-Aldrich Canada Ltd. (Oakville, ON). Human collagen types I and IV (Rockland Immunochemicals, Inc.) were purchased from VWR International.
(§3) To test for binding of synthetic Tp0751 peptides p1-p13, p1scr, p6scr, p10scr1, and p10scr2 to the host proteins fibrinogen, fibronectin, laminin, collagen type I, and collagen type IV, initial binding assays were performed as described previously. For dose-dependent binding assays, recombinant proteins were serially diluted 1:2 from either 10 μM to 0.156 μm (Tp0751_78A used for crystallization and Tp0751_78 WT) or 40 μm to 0.625 μm (peptides p4, p6, p10, p11, p10scr1, and p10scr2). Average absorbance readings (600 nm) from three wells are presented with bars indicating standard error and the results are representative of two independent experiments. Plates were read at 600 nm with a BioTek enzyme-linked immunosorbent assay plate reader (Fisher Scientific, Ottawa, ON). All statistical analyses were performed using the Student’s two-tailed t-test. Non-linear regression curves were fitted and apparent dissociation constants (K d) were calculated using GraphPad Prism data analysis software (San Diego, CA).

fibrinogen = target: T1, fibrinogen (Homo sapiens, UniProt P02671+P02675+P02679); assay: Initial (single point) binding screen of Tp0751 peptide library to immobilized fibrinogen; conditions: absorbance 600 nm, three wells, two independent experiments, Student's two-tailed t-test against non-binding peptides
T1 construct: purchased Calbiochem, purchased from VWR International
T1 sequence (P02671 20-629 limits assumed): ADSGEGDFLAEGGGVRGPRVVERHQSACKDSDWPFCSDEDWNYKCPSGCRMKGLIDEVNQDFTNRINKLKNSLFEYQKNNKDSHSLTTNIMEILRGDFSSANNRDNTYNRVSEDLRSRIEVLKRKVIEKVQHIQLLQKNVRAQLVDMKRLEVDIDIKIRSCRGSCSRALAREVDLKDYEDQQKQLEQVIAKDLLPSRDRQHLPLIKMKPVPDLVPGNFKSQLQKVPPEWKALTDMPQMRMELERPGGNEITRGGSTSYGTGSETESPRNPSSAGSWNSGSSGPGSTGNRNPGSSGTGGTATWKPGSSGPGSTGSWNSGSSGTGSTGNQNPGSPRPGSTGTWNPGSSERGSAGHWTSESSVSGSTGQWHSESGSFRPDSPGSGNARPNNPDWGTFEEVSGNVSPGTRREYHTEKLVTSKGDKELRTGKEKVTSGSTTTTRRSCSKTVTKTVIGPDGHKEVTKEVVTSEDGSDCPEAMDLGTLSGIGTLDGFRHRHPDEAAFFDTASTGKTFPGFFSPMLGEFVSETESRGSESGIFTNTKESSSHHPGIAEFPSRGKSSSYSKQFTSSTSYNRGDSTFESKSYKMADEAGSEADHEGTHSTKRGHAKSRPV
T1 sequence (P02675 31-491): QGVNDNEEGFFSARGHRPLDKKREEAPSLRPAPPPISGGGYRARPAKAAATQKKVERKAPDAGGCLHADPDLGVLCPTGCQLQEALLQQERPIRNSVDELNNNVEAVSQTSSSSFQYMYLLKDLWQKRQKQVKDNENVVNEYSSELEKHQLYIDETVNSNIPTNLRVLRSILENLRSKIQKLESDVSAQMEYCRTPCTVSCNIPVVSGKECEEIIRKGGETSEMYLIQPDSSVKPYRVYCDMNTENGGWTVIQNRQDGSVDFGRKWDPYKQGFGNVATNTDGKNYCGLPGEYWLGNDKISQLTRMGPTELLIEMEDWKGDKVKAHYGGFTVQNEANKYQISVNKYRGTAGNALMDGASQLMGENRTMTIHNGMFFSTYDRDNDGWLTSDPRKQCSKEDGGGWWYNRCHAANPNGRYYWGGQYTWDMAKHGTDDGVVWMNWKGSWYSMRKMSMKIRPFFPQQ
T1 sequence (P02679 27-433 limits assumed): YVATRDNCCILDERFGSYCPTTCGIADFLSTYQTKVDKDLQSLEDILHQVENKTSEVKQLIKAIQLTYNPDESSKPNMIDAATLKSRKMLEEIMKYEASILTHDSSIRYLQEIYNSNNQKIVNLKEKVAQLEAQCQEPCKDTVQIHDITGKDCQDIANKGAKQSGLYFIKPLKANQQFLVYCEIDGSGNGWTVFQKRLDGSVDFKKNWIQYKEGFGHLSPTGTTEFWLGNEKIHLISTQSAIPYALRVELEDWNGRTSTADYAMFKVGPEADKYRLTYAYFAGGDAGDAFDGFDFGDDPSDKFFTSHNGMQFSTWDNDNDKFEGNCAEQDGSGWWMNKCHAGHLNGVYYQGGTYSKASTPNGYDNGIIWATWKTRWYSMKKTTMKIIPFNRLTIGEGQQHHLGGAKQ
Description: as §1, §2, §3

fibronectin [1] = assay: Initial (single point) binding screen of Tp0751 peptide library to immobilized fibronectin; design: species or system human; conditions: absorbance 600 nm, three wells, two independent experiments, Student's two-tailed t-test against non-binding peptides
Description: as §1, §2, §3

fibronectin [2] = assay: Dose-dependent binding assay to immobilized fibronectin; conditions: plate binding to immobilized human plasma fibronectin; peptides serially diluted 1:2 from 40 to 0.625; absorbance 600 nm, three wells, representative of two independent experiments; non-linear regression, GraphPad Prism; read-out: Apparent Kd (Fn)
Description: as §1, §2, §3

collagen type I = assay: Initial (single point) binding screen of Tp0751 peptide library to immobilized collagen type I; conditions: immobilized human collagen type I; absorbance 600 nm, three wells, two independent experiments; Student's two-tailed t-test against non-binding peptides
Description: as §1, §2, §3

[3] = target: fibronectin isolated from human plasma (human); assay: ELISA; dose-dependent plate binding assay on immobilised fibrinogen or fibronectin; His6-tagged synthetic peptides serially diluted 1:2 from 40 μM to 0.625 μM; absorbance at 600 nm; apparent Kd by non-linear regression (GraphPad Prism)
[4] = target: T2, plasminogen-depleted human fibrinogen (human, UniProt P02671-2 20-644; P02675 31-491; P02679-2 27-437); assay: as above; conditions: both partners purified
T2 construct: fibrinogen alpha chain, human; fibrinogen beta chain, human; fibrinogen gamma chain, human; also called Fg; source: bought: Calbiochem (through VWR International)
T2 sequence (looked up) 1: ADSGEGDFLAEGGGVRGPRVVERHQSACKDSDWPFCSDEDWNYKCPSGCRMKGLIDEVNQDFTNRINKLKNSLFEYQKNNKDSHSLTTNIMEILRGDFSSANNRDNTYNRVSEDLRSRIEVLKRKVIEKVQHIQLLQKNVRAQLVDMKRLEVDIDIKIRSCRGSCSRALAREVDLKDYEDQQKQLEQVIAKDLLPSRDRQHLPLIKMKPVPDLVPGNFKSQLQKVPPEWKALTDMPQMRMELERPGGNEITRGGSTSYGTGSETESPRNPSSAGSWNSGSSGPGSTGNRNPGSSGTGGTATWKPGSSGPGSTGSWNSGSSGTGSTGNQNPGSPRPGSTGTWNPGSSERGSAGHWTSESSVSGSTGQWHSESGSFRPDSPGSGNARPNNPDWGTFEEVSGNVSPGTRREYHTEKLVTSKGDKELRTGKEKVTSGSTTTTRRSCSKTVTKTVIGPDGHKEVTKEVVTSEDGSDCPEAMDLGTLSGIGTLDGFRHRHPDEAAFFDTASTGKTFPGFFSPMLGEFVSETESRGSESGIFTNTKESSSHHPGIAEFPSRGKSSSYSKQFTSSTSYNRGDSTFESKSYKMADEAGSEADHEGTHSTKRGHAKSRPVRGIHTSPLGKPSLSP
T2 sequence (looked up) 2: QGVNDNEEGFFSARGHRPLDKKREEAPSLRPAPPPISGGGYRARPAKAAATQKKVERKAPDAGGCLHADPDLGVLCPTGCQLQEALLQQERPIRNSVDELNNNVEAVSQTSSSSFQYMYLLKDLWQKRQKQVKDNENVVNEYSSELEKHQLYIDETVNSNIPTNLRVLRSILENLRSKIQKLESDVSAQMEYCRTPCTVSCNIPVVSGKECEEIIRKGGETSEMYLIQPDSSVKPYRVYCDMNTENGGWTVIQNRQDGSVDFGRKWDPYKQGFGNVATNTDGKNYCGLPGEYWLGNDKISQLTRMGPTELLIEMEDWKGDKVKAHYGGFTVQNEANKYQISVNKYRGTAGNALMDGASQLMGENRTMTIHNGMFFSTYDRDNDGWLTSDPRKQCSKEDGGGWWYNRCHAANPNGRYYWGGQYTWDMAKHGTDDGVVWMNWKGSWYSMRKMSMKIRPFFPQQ
T2 sequence (looked up) 3: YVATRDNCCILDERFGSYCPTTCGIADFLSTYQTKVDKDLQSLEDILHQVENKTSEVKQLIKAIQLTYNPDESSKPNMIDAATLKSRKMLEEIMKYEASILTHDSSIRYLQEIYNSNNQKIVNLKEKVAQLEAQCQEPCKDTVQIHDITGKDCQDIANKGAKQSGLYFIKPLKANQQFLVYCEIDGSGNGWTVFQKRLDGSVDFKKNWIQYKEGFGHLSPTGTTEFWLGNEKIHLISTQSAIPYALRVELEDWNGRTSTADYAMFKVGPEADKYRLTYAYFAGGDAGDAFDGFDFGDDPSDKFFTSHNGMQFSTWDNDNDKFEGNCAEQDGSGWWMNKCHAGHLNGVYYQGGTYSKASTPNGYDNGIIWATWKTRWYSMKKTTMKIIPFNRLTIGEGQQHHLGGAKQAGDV

[5] = target: T2, plasminogen-depleted human fibrinogen; assay: ELISA; dose-dependent plate binding assay on immobilised fibrinogen; recombinant Tp0751 proteins serially diluted 1:2 from 10 μM to 0.156 μM; absorbance at 600 nm; apparent Kd by non-linear regression (GraphPad Prism); conditions: both partners purified

HHHHHHTSRVKLTISFERSLVNRTRTARFI [p10scr1]
Binding to collagen IV in initial binding screen (collagen type IV): enhanced binding relative to p10
Binding to fibrinogen in initial binding screen (fibrinogen): enhanced binding relative to p10
Binding to fibronectin in initial binding screen (fibronectin [1]): enhanced binding relative to p10
Kd (fibronectin [2]): 1.3 ± 0.1 µM
Binding to collagen I in initial binding screen (collagen type I): enhanced binding relative to p10

Tp0751 synthetic peptide p4 (from UniProt O83732 88-111)
Kd [3]: 2.4 µM

Tp0751 synthetic peptide p6 (from UniProt O83732 116-139)
Kd [3]: 4.5 µM

Tp0751 synthetic peptide p11 (from UniProt O83732 186-209)
Kd [3]: 5.8 µM

VAREFNKSRTILFRTSVTRLSTRI [second scrambled version of Tp0751 peptide 10 (p10scr2)]
Kd [3]: 7.9 µM

B1: Tp0751 synthetic peptide p4 (peptide)
peptide: GGAAQTHTQPPVQTAMRIALWNRA
notes: Tp0751 (pallilysin), Treponema pallidum subsp. pallidum; its central four residues PVQT (98-101) are printed; also called peptide 4; source: synthetic peptide; not shown: His6, N-terminal, kept
Kd [4]: 6.9 ± 0.4 µM

B2: Tp0751 synthetic peptide p11 (peptide)
peptide: SIRRRLEVTFESHEVIHVRAVEDV
notes: Tp0751 (pallilysin), Treponema pallidum subsp. pallidum; shares its first 10 residues (with the arginine triplet) with p10; source: synthetic peptide; not shown: His6, N-terminal, kept
Kd [4]: 9.2 ± 1 µM

B3: Tp0751 synthetic peptide p10 (peptide)
peptide: RKTVSFLTRNTAISSIRRRLEVTF
notes: Tp0751 (pallilysin), Treponema pallidum subsp. pallidum; Its composition equals that of the printed scrambled peptide p10scr2; also called peptide 10; source: synthetic peptide; not shown: His6, N-terminal, kept
Kd [4]: 1.6 ± 0.1 µM

B4: Tp0751_78 WT (domain or fragment)
chain: SHGNAPPAPVGGAAQTHTQPPVQTAMRIALWNRATHGEQGALQHLLAGLWIQTEISPNSGDIHPLLFFDREHAEITFSRASVQEIFLVDSAHTHRKTVSFLTRNTAISSIRRRLEVTFESHEVIHVRAVEDVARLKIGSTSMWDGQYTRYHAGPASAPSP
notes: Tp0751 (pallilysin), Treponema pallidum subsp. pallidum, Ser78 to Pro237 (C-terminus), wild type at Glu199; The methods tell vector (modified pET28a, TEV-cleavable N-terminal His6), host strain and purification only for the E199A constructs; also called wild-type Tp0751_78 WT; source: E. coli, purified
Kd [5]: 6.1 ± 1.7 µM

B5: Tp0751_78 E199A (Tp0751_78A) (domain or fragment, Treponema pallidum subsp. pallidum, UniProt O83732 78-237, looked up)
chain: SHGNAPPAPVGGAAQTHTQPPVQTAMRIALWNRATHGEQGALQHLLAGLWIQTEISPNSGDIHPLLFFDREHAEITFSRASVQEIFLVDSAHTHRKTVSFLTRNTAISSIRRRLEVTFESHAVIHVRAVEDVARLKIGSTSMWDGQYTRYHAGPASAPSP
notes: Tp0751 (pallilysin), Treponema pallidum subsp. pallidum, Ser78 to Pro237 (C-terminus), with E199A; The construct used for crystallization; also called pallilysin Ser78 to Pro237 E199A; not shown: His6, N-terminal, cleaved
Kd [5]: 2 ± 0.4 µM

B6: Tp0751 synthetic peptide p6 (peptide)
peptide: QGALQHLLAGLWIQTEISPNSGDI
notes: Tp0751 (pallilysin), Treponema pallidum subsp. pallidum; its central four residues LWIQ (126-129) are printed; also called peptide 6; source: synthetic peptide; not shown: His6, N-terminal, kept
Kd [4]: 10.5 ± 2 µM
